Data: patent publication US20220025010A1 (ANTAG THERAPEUTICS, published 2022)
Read-outs that look alike come from different tables or passages of the source. *1 amine or outer side, *2 acyl side, *3 side chain or, on linkers, in order; H or OH if unused. Where no end group is shown, it is not given here. Side-chain parts run from the residue outwards. [ ]: non-standard residue; d: D form. The star is where a group is joined. C18 diacid = O=C(O)CCCCCCCCCCCCCCCCC(=O)*; C16 diacid = O=C(O)CCCCCCCCCCCCCCC(=O)*; γGlu = O=C(O)[C@H](CCC(=O)[*:2])N[*:1]; pGlu = O=C1CC[C@@H](C(=O)O)N1; AEEA = NCCOCCOCC(=O)O

How the values were obtained:
Assay in all cases: cell-based or functional assay
human GIP receptor [1] = target: T1, human GIP receptor (human, UniProt P48546 22-466)
T1 sequence (looked up): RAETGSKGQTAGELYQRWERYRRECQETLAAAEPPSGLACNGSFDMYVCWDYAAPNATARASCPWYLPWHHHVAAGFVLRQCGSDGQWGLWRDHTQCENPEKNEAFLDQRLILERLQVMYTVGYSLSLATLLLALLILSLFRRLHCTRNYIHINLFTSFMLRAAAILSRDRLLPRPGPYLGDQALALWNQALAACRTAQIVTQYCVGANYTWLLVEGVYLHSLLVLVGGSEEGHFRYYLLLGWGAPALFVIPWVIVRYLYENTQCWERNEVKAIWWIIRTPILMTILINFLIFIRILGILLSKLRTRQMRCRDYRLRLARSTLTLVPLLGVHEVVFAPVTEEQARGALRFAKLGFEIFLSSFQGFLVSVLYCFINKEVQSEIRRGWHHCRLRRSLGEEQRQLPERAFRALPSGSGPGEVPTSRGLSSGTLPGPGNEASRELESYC

GLP1 receptor = GLP1 receptor (UniProt P43220 24-463, limits assumed)
human GIP receptor [2] = target: T1, human GIP receptor; remark: listed apart in the source
human GIP receptor [3] = target: T1, human GIP receptor; remark: listed apart in the source
glucagon receptor = glucagon receptor (UniProt P47871 26-477, limits assumed)
Sequence of glucagon receptor (P47871 26-477 limits assumed): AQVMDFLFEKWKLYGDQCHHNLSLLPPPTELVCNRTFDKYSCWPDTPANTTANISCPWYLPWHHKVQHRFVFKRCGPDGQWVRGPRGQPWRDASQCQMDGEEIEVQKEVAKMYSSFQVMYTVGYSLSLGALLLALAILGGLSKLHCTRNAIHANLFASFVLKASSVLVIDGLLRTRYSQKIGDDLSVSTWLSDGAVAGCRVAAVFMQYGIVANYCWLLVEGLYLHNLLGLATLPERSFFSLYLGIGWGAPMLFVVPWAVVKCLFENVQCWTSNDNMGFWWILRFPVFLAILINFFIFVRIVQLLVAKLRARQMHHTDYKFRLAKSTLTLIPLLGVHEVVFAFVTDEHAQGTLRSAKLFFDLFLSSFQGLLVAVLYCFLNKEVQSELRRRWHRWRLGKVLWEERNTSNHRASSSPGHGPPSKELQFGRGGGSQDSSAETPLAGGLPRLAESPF

human GIP receptor [4] = target: T1, human GIP receptor; remark: listed apart in the source

Row | Binder | CisBio cAMP antagonism % inhib (human GIP receptor [1]) | CisBio cAMP antagonism IC50 (human GIP receptor [1]) | cAMP antagonism IC50 (human GIP receptor [1]) | cAMP antagonism % inhib (GLP1 receptor) | cAMP antagonism IC50 (GLP1 receptor) | cAMP antagonism index (GLP1 receptor) | cAMP antagonism log IC50 (GLP1 receptor) | CisBio cAMP agonism % Efficacy (human GIP receptor [2]) | CisBio cAMP antagonism % inhib (human GIP receptor [2]) | CisBio cAMP antagonism IC50 (human GIP receptor [2]) | CisBio cAMP antagonism pIC50 (human GIP receptor [2]) | DiscoveRx cAMP antagonism IC50 (human GIP receptor [2]) | DiscoveRx cAMP antagonism log IC50 (human GIP receptor [2]) | cAMP antagonism IC50 (finer than Table 1B) (human GIP receptor [3]) | DiscoveRx cAMP antagonism % inhib (human GIP receptor [2]) | cAMP antagonism % inhib (human GIP receptor [1]) | other results
1 | SGTFISDYSIAMDRIK([AEEA-AEEA-γGlu-C16 diacid])QQDFVNWLLAQR-OH (N-terminus assumed; SMILES CC[C@H](C)[C@H](NC(=O)[C@H](CO)NC(=O)[C@H](Cc1ccc(O)cc1)NC(=O)[C@H](CC(=O)O)NC(=O)[C@H](CO)NC(=O)[C@@H](NC(=O)[C@H](Cc1ccccc1)NC(=O)[C@@H](NC(=O)CNC(=O)[C@@H](N)CO)[C@@H](C)O)[C@@H](C)CC)C(=O)N[C@@H](C)C(=O)N[C@@H](CCSC)C(=O)N[C@@H](CC(=O)O)C(=O)N[C@@H](CCCNC(=N)N)C(=O)N[C@H](C(=O)N[C@@H](CCCCNC(=O)COCCOCCNC(=O)COCCOCCNC(=O)CC[C@H](NC(=O)CCCCCCCCCCCCCCC(=O)O)C(=O)O)C(=O)N[C@@H](CCC(N)=O)C(=O)N[C@@H](CCC(N)=O)C(=O)N[C@@H](CC(=O)O)C(=O)N[C@@H](Cc1ccccc1)C(=O)N[C@H](C(=O)N[C@@H](CC(N)=O)C(=O)N[C@@H](Cc1c[nH]c2ccccc12)C(=O)N[C@@H](CC(C)C)C(=O)N[C@@H](CC(C)C)C(=O)N[C@@H](C)C(=O)N[C@@H](CCC(N)=O)C(=O)N[C@@H](CCCNC(=N)N)C(=O)O)C(C)C)[C@@H](C)CC) [AT277] | 84% | 31.6 nM | 16 nM | 68% | 6100 nM | 561 | -5.2 log M | 8% | 84% | 31.6 nM | 7.5 | 16 nM | -7.8 log M |  |  |  | DiscoveRx cAMP agonism Emax (human GIP receptor [2]): 9
2 | [pGlu]GTFISDYSIAMDRIK([AEEA-AEEA-AEEA-γGlu-C16 diacid])QQDFVNWLLAQR-NH2 [AT380] |  |  |  |  |  |  |  | 8% | 82% | 85.8 nM | 7.1 | 7 nM | -8.1 log M | 7.3 nM | 100% |  | 
3 | SGTFISDYSIAMDRIK(C16 diacid)QQDFVNWLLAQR-NH2 (N-terminus assumed; SMILES CC[C@H](C)[C@H](NC(=O)[C@H](CO)NC(=O)[C@H](Cc1ccc(O)cc1)NC(=O)[C@H](CC(=O)O)NC(=O)[C@H](CO)NC(=O)[C@@H](NC(=O)[C@H](Cc1ccccc1)NC(=O)[C@@H](NC(=O)CNC(=O)[C@@H](N)CO)[C@@H](C)O)[C@@H](C)CC)C(=O)N[C@@H](C)C(=O)N[C@@H](CCSC)C(=O)N[C@@H](CC(=O)O)C(=O)N[C@@H](CCCNC(=N)N)C(=O)N[C@H](C(=O)N[C@@H](CCCCNC(=O)CCCCCCCCCCCCCCC(=O)O)C(=O)N[C@@H](CCC(N)=O)C(=O)N[C@@H](CCC(N)=O)C(=O)N[C@@H](CC(=O)O)C(=O)N[C@@H](Cc1ccccc1)C(=O)N[C@H](C(=O)N[C@@H](CC(N)=O)C(=O)N[C@@H](Cc1c[nH]c2ccccc12)C(=O)N[C@@H](CC(C)C)C(=O)N[C@@H](CC(C)C)C(=O)N[C@@H](C)C(=O)N[C@@H](CCC(N)=O)C(=O)N[C@@H](CCCNC(=N)N)C(N)=O)C(C)C)[C@@H](C)CC) [AT392] | 96% | 68.1 nM | 1 nM |  |  |  |  |  |  |  | 7.2 |  | -9.2 log M | 0.6 nM |  | 93% | 
4 | GGTFISDYSIAMDRIK(C16 diacid)QQDFVNWLLAQR-OH (N-terminus assumed; SMILES CC[C@H](C)[C@H](NC(=O)[C@H](CO)NC(=O)[C@H](Cc1ccc(O)cc1)NC(=O)[C@H](CC(=O)O)NC(=O)[C@H](CO)NC(=O)[C@@H](NC(=O)[C@H](Cc1ccccc1)NC(=O)[C@@H](NC(=O)CNC(=O)CN)[C@@H](C)O)[C@@H](C)CC)C(=O)N[C@@H](C)C(=O)N[C@@H](CCSC)C(=O)N[C@@H](CC(=O)O)C(=O)N[C@@H](CCCNC(=N)N)C(=O)N[C@H](C(=O)N[C@@H](CCCCNC(=O)CCCCCCCCCCCCCCC(=O)O)C(=O)N[C@@H](CCC(N)=O)C(=O)N[C@@H](CCC(N)=O)C(=O)N[C@@H](CC(=O)O)C(=O)N[C@@H](Cc1ccccc1)C(=O)N[C@H](C(=O)N[C@@H](CC(N)=O)C(=O)N[C@@H](Cc1c[nH]c2ccccc12)C(=O)N[C@@H](CC(C)C)C(=O)N[C@@H](CC(C)C)C(=O)N[C@@H](C)C(=O)N[C@@H](CCC(N)=O)C(=O)N[C@@H](CCCNC(=N)N)C(=O)O)C(C)C)[C@@H](C)CC) [AT257] | 80% | 136 nM | 21 nM | 55% | 5390 nM | 256 | -5.3 log M | 5% | 80% | 136 nM | 6.9 | 21 nM | -7.7 log M |  |  |  | cAMP antagonism % inhib (glucagon receptor): 100%; cAMP antagonism IC50 (glucagon receptor): 15 nM; cAMP antagonism index (glucagon receptor): 1; DiscoveRx cAMP agonism Emax (human GIP receptor [2]): 4
5 | [pGlu]GTFISDYSIAMDRIK(C16 diacid)QQDFVNWLLAQR-NH2 [AT390] |  |  |  |  |  |  |  | 4% | 81% | 15.9 nM | 7.8 | 1 nM | -9.1 log M | 0.8 nM | 100% |  | 
6 | FISDYSIAMDKIK(C16 diacid)QQDFVNWLLAQK-NH2 (N-terminus assumed; SMILES CC[C@H](C)[C@H](NC(=O)[C@H](CO)NC(=O)[C@H](Cc1ccc(O)cc1)NC(=O)[C@H](CC(=O)O)NC(=O)[C@H](CO)NC(=O)[C@@H](NC(=O)[C@@H](N)Cc1ccccc1)[C@@H](C)CC)C(=O)N[C@@H](C)C(=O)N[C@@H](CCSC)C(=O)N[C@@H](CC(=O)O)C(=O)N[C@@H](CCCCN)C(=O)N[C@H](C(=O)N[C@@H](CCCCNC(=O)CCCCCCCCCCCCCCC(=O)O)C(=O)N[C@@H](CCC(N)=O)C(=O)N[C@@H](CCC(N)=O)C(=O)N[C@@H](CC(=O)O)C(=O)N[C@@H](Cc1ccccc1)C(=O)N[C@H](C(=O)N[C@@H](CC(N)=O)C(=O)N[C@@H](Cc1c[nH]c2ccccc12)C(=O)N[C@@H](CC(C)C)C(=O)N[C@@H](CC(C)C)C(=O)N[C@@H](C)C(=O)N[C@@H](CCC(N)=O)C(=O)N[C@@H](CCCCN)C(N)=O)C(C)C)[C@@H](C)CC) [AT353] | 90% | 25.1 nM | 9 nM | 43% | 169 nM | 44 | -6.8 log M | 0% | 90% | 25.1 nM | 7.6 |  |  |  |  | 100% | cAMP antagonism % inhib (human GIP receptor [4]): 100%; cAMP antagonism IC50 (human GIP receptor [4]): 9 nM; cAMP antagonism log IC50 (human GIP receptor [4]): -8.1 log M
7 | [pGlu]GTFISDYSIAMDRIK([AEEA-AEEA-AEEA-γGlu-C18 diacid])QQDFVNWLLAQR-NH2 [AT382] | 83% | 25.1 nM | 2 nM |  |  |  |  | 0% | 83% | 25.1 nM | 7.6 | 2 nM | -8.7 log M | 1.8 nM | 100% | 100% | 
